Columns and labels:
[1] = molecular target: IgG1 contained in cell-free eukaryotic culture supernatant (Experiment 1, test 2); assay: affinity precipitation; 16.25 nmol Z-dimer with 16.25 nmol IgG1 in culture supernatant, 2 h; antibody left in supernatant measured by SEC UV signal and protein A chromatography
[2] = molecular target: IgG4 contained in cell-free eukaryotic culture supernatant (Experiment 1, test 1); assay: affinity precipitation; 0.13 µmol Z-dimer with 0.065 µmol IgG4 in culture supernatant, 2 h; antibody left in supernatant measured by SEC UV signal and protein A chromatography
[3] = molecular target: antibody in cell-free culture supernatant (Experiment 3); assay: affinity precipitation from cell-free culture supernatant; antibody to Z-dimer 1:2, 1 h; precipitate collected on a 0.22 µm filter

percent of antibody precipitated [1]: 76%
percent of antibody precipitated [2]: 99%
total yield of the antibody after the precipitation [3]: 98%
Substance: Z-dimer (dimerised protein Z; two Z-domain Cys tag monomers linked via a disulphide bridge) (designed binder)

Reference: patent US20140128578A1
